The source of these data is paper PMC11229369.

Like-named read-outs stand apart in the source and are kept apart here.

The target in data set [1] is T1, Cas13h1 (UniProt PDB:8WCE_1 1-1111).
T1 sequence: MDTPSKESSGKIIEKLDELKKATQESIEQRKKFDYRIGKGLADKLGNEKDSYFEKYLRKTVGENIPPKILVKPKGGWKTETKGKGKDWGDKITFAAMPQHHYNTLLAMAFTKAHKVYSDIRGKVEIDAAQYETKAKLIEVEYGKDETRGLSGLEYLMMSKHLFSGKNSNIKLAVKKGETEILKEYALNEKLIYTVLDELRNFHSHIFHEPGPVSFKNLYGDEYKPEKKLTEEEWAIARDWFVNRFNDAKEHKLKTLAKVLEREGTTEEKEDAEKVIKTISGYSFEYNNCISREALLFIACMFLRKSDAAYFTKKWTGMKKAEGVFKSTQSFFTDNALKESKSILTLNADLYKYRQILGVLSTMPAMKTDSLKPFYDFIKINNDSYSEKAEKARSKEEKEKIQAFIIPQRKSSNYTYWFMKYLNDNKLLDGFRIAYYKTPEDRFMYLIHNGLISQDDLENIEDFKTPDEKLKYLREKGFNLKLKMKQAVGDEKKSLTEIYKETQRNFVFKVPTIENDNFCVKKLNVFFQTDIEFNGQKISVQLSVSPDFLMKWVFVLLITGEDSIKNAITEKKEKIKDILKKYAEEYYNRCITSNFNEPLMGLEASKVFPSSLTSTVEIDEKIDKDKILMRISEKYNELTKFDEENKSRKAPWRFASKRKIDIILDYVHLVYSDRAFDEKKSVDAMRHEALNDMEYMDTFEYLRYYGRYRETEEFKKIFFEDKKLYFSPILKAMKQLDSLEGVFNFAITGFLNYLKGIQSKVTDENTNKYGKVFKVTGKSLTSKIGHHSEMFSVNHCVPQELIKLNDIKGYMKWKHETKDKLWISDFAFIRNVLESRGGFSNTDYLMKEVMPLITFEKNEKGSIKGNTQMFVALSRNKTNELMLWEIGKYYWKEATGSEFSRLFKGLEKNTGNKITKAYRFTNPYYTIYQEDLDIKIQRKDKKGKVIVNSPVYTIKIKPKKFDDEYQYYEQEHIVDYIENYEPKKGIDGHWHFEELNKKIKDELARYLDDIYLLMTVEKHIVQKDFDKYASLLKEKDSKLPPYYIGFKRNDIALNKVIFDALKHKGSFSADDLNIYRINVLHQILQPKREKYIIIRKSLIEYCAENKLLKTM
The data set is described as follows: cryo-EM.

The target in data set [2] is T2, Cas13h1 Middle (UniProt PDB:8WCE_1 340-930).
T2 sequence: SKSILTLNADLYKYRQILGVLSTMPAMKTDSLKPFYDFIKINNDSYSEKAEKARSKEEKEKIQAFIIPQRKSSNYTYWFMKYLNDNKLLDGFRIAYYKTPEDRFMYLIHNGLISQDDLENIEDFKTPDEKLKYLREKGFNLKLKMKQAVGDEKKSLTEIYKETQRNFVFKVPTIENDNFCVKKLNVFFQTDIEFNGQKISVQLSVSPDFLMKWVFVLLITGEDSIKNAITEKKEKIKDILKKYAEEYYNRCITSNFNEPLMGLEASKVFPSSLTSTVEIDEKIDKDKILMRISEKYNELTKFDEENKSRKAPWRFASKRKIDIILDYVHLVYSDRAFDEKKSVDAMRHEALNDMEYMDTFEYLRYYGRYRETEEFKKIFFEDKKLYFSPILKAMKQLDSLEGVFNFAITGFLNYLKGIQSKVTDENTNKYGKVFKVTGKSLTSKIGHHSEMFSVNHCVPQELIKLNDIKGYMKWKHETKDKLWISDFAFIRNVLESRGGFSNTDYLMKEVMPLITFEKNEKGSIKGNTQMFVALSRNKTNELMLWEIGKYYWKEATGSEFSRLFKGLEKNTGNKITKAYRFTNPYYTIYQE
The data set is described as follows: size exclusion chromatography. (SEC sorts molecules by how far they enter the pores of the column.)

The target of data set [3] is T3, Cas13h1 R200A (catalytically dead) (UniProt PDB:8WCE_1 1-1111, R200A).
T3 sequence: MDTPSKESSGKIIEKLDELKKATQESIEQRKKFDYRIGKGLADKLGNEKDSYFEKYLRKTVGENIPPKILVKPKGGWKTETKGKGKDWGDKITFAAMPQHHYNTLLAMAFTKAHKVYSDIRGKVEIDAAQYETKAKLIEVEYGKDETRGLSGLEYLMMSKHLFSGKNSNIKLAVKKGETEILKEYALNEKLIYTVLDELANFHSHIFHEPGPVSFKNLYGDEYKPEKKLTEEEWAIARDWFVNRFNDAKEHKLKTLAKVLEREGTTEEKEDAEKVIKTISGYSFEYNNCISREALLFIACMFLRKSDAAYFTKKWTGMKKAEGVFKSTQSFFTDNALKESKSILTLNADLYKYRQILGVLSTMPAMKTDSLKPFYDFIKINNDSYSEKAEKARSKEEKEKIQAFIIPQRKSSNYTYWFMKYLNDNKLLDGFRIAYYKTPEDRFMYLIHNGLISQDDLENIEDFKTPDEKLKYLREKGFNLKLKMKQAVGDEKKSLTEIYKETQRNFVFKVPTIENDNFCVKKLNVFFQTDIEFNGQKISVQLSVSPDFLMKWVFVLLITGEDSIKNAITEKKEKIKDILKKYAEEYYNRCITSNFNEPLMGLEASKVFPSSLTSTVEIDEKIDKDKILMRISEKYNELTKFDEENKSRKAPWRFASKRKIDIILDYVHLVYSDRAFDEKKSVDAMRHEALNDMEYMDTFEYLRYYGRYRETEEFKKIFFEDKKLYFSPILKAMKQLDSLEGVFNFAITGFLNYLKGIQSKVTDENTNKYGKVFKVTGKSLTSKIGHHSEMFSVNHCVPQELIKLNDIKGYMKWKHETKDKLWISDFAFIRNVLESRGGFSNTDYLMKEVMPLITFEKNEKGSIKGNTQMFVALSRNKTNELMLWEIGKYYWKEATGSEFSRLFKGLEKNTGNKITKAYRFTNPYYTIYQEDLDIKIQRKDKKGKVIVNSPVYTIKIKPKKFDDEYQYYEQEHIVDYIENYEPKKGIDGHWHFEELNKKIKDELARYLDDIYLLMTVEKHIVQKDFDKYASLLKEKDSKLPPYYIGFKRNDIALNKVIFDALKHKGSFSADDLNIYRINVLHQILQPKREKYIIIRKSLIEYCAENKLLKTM
Nature of the data set: cryo-EM.

Data set [4] has as its target T3, Cas13h1 R200A (catalytically dead). Nature of the data set: cryo-EM. This is another data set of the same source.

B1: crRNA (30-nt guide, 36-nt repeat) (structured_RNA)
RNA: UGCUUCACGUAGGCCUUGGAGCCGUACAUGGUUGUAACAAGCCUAAGUUUGAAAGGUAAAAACAAC
For the molecule B1, the binding result in data set [1] is recorded as “binds”.

B2: crRNA / target RNA1 (5'-G) (structured_RNA)
RNA 1: UGCUUCACGUAGGCCUUGGAGCCGUACAUGGUUGUAACAAGCCUAAGUUUGAAAGGUAAAAACAAC
RNA 2: GCAUGUACGGCUCCAAGGCCUACGUGAAGCA
As to B2, the binding result in data set [2] and in data set [3] was “binds” each time.

B3: crRNA / target RNA3 (5'-U) (structured_RNA)
RNA 1: UGCUUCACGUAGGCCUUGGAGCCGUACAUGGUUGUAACAAGCCUAAGUUUGAAAGGUAAAAACAAC
RNA 2: UCAUGUACGGCUCCAAGGCCUACGUGAAGCA
For the molecule B3, in data set [4], the binding result is recorded as “binds”.
